Experimental data: patent CN117836322A (PASTEUR INSTITUT, dated 2024)
Numbering of substitutions follows the chain as printed.

B1: Cv2.1169 IgG1 (antibody, V domains shown)
VH: QVQLVQSGPEVKKPGTSVKVSCKASGFTFTTSAVQWVRQARGQRLEWIGWIVVGSGNTNYAQKFQERVTITRDMSTTTAYMELSSLRSEDTAVYYCAAPYCSGGTCLDGFDIWGQGTMVTVSS
VL: not shown
B2: Cv2.3194 IgG1 (antibody, V domains shown)
VH: EVQLVESGGGLIQPGGSLRLSCAASGITVTSNYMSWVRQAPGKGLEWVSVIYPGGSTFYADSVKGRFTISRDNSKNTLYLQMNSLRAEDTAVYYCARDLVVYGMDVWGQGTTVTVSS
VL: EIVLTQSPGTLSLSPGERATLSCRASQSVSSSYLAWYQQKPGQAPRLLIYGASSRATGIPGRFSGSGSGTDFTLTISRLEPEDFAIYYCQQGVTFGGGTKVEIKR
B3: Cv2.5213 IgG1 (antibody, V domains shown)
VH: B2 VH with I27F, T30S, V50L, P53S, F58Y, V100N, V101Y, T111A
VL: DIQMTQSPSSLSASVGDRVTITCRASQGISSYLAWYQQKPGKAPKLLIYAASTLQSGVPSRFSGSGSGTDFTLTISSLQPEDFATYYCQQLDSYSPFTFGPGTKVDIKR
B4: Cv2.3235 IgG1 (antibody, V domains shown)
VH: B2 VH with I27F, T30S, S31R, P53S, L99G, V100D, V101Y
VL: DIQMTQSPSFLSASVGDRVTITCRASQGISSFLAWYQQKPGKAPKLLIYGASTLQSGVTSRFSGSGSGTEFTLTISSLQPEDFATYYCQRLDSYPPITFGQGTRLEIKR
B5: Cv2.1353 IgG1 (antibody, V domains shown)
VH: EVQLVESGGGLVQPGGSLRLSCAASGVTVSSNYMNWVRQAPGKGLEWVSVIYSGGSTFYADSVKGRFIISRDNSKNTLYLQMNSLKTEDTAVYYCARDLGPMGFDIWGQGTMVTVSS
VL: B3 VL with S10F, D70E, D92N, Y94D, S95P, F97V

Target: T1, SARS-CoV-2 S1结构域 (SARS-CoV-2, UniProt P0DTC2 16-681)
T1 construct: also called S1亚基
Assay: SPR (Biacore), antibody coupled to CM5 chip, viral protein as analyte, 25°C

Binder	Kd [µM]
B1	< 1
B2	< 1
B3	< 1
B4	< 1
B5	< 1
